Source: the Human Domainome abundance scans (Beltran et al. 2025)
± gives the uncertainty stated by the source.

B1: Kinesin-like protein KIF16B, residues 1213 to 1273; numbered along this chain, Q96L93 (parent)
chain: ETWTVFRRYSRFREMHKTLKLKYAELAALEFPPKKLFGNKDERVIAERRSHLEKYLRDFFS

Variants of: B1
Experiment: abundance fitness (aPCA) (normalised: wild type 0, dead -1); higher = more abundant; growth selection in yeast, the domain comes from the species named
Conditions: Homo sapiens

Row | Variant | abundance fitness
1 | ETWTVFRRYSRFREMHKTLKLKYAELAALEFPPKKLFGNKDERVISERRSHLEKYLRDFFS [A46S] | 0.147 ± 0.074
2 | ETWTVFRRYSRFREMHKTLKLKYAELAALEFPPKKLFGNKDERVICERRSHLEKYLRDFFS [A46C] | 0.093 ± 0.22
3 | ETWTVFRRYSRFREMHKTLKLKYAELAALEFPPKKLFGNKDERVIYERRSHLEKYLRDFFS [A46Y] | -0.262 ± 0.13
4 | ETWTVFRRYSRFREMHKTLKLKYAELAALEFPPKKLFGNKDERVIRERRSHLEKYLRDFFS [A46R] | 0.131 ± 0.041
5 | ETWTVFRRYSRFREMHKTLKLKYAELAALEFPPKKLFGNKDERVIDERRSHLEKYLRDFFS [A46D] | -0.01 ± 0.092
6 | ETWTVFRRYSRFREMHKTLKLKYAELAALEFPPKKLFGNKDERVIFERRSHLEKYLRDFFS [A46F] | -0.27 ± 0.18
7 | ETWTVFRRYSRFREMHKTLKLKYAELAALEFPPKKLFGNKDERVIVERRSHLEKYLRDFFS [A46V] | -0.057 ± 0.054
8 | ETWTVFRRYSRFREMHKTLKLKYAELAALEFPPKKLFGNKDERVIMERRSHLEKYLRDFFS [A46M] | -0.073 ± 0.068
9 | ETWTVFRRYSRFREMHKTLKLKYAELAALEFPPKKLFGNKDERVIKERRSHLEKYLRDFFS [A46K] | 0.186 ± 0.073
10 | ETWTVFRRYSRFREMHKTLKLKYAELAALEFPPKKLFGNKDERVITERRSHLEKYLRDFFS [A46T] | 0.242 ± 0.068
11 | ETWTVFRRYSRFREMHKTLKLKYAELAALEFPPKKLFGNKDERVIEERRSHLEKYLRDFFS [A46E] | 0.037 ± 0.078
12 | ETWTVFRRYSRFREMHKTLKLKYAELAALEFPPKKLFGNKDERVIWERRSHLEKYLRDFFS [A46W] | -0.176 ± 0.089
13 | ETWTVFRRYSRFREMHKTLKLKYAELAALEFPPKKLFGNKDERVIQERRSHLEKYLRDFFS [A46Q] | -0.03 ± 0.13
14 | ETWTVFRRYSRFREMHKTLKLKYAELAALEFPPKKLFGNKDERVIGERRSHLEKYLRDFFS [A46G] | 0.211 ± 0.044
15 | ETWTVFRRYSRFREMHKTLKLKYAELAALEFPPKKLFGNKDERVILERRSHLEKYLRDFFS [A46L] | -0.324 ± 0.09
16 | ETWTVFRRYSRFREMHKTLKLKYAELAALEFPPKKLFGNKDERVIPERRSHLEKYLRDFFS [A46P] | 0.256 ± 0.095
17 | ETWTVFRRYSRFREMHKTLKLKYAELAALEFPPKKLFGNKDERYIAERRSHLEKYLRDFFS [V44Y] | -0.215 ± 0.34
18 | ETWTVFRRYSRFREMHKTLKLKYAELAALEFPPKKLFGNKDERTIAERRSHLEKYLRDFFS [V44T] | 0.263 ± 0.16
19 | ETWTVFRRYSRFREMHKTLKLKYAELAALEFPPKKLFGNKDERWIAERRSHLEKYLRDFFS [V44W] | 0.112 ± 0.1
20 | ETWTVFRRYSRFREMHKTLKLKYAELAALEFPPKKLFGNKDERSIAERRSHLEKYLRDFFS [V44S] | 0.351 ± 0.086
21 | ETWTVFRRYSRFREMHKTLKLKYAELAALEFPPKKLFGNKDERVVAERRSHLEKYLRDFFS [I45V] | 0.009 ± 0.048
22 | ETWTVFRRYSRFREMHKTLKLKYAELAALEFPPKKLFGNKDERVFAERRSHLEKYLRDFFS [I45F] | 0.158 ± 0.06

Row | Variant | abundance fitness
23 | ETWTVFRRYSRFREMHKTLKLKYAELAALEFPPKKLFGNKDERVLAERRSHLEKYLRDFFS [I45L] | 0.051 ± 0.044
24 | ETWTVFRRYSRFREMHKTLKLKYAELAALEFPPKKLFGNKDERVPAERRSHLEKYLRDFFS [I45P] | 0.271 ± 0.048
25 | ETWTVFRRYSRFREMHKTLKLKYAELAALEFPPKKLFGNKDERVGAERRSHLEKYLRDFFS [I45G] | 0.264 ± 0.043
26 | ETWTVFRRYSRFREMHKTLKLKYAELAALEFPPKKLFGNKDERVAAERRSHLEKYLRDFFS [I45A] | 0.177 ± 0.041
27 | ETWTVFRRYSRFREMHKTLKLKYAELAALEFPPKKLFGNKDERVHAERRSHLEKYLRDFFS [I45H] | 0.11 ± 0.062
28 | ETWTVFRRYSRFREMHKTLKLKYAELAALEFPPKKLFGNKDERVYAERRSHLEKYLRDFFS [I45Y] | -0.274 ± 0.099
29 | ETWTVFRRYSRFREMHKTLKLKYAELAALEFPPKKLFGNKDERVWAERRSHLEKYLRDFFS [I45W] | 0.35 ± 0.052
30 | ETWTVFRRYSRFREMHKTLKLKYAELAALEFPPKKLFGNKDERVQAERRSHLEKYLRDFFS [I45Q] | 0.174 ± 0.046
31 | ETWTVFRRYSRFREMHKTLKLKYAELAALEFPPKKLFGNKDERVTAERRSHLEKYLRDFFS [I45T] | 0.158 ± 0.043
32 | ETWTVFRRYSRFREMHKTLKLKYAELAALEFPPKKLFGNKDERVDAERRSHLEKYLRDFFS [I45D] | 0.057 ± 0.061
33 | ETWTVFRRYSRFREMHKTLKLKYAELAALEFPPKKLFGNKDERVKAERRSHLEKYLRDFFS [I45K] | 0.281 ± 0.053
34 | ETWTVFRRYSRFREMHKTLKLKYAELAALEFPPKKLFGNKDERVRAERRSHLEKYLRDFFS [I45R] | 0.133 ± 0.039
35 | ETWTVFRRYSRFREMHKTLKLKYAELAALEFPPKKLFGNKDERVMAERRSHLEKYLRDFFS [I45M] | 0.062 ± 0.047
36 | ETWTVFRRYSRFREMHKTLKLKYAELAALEFPPKKLFGNKDERVCAERRSHLEKYLRDFFS [I45C] | 0.133 ± 0.043
37 | ETWTVFRRYSRFREMHKTLKLKYAELAALEFPPKKLFGNKDERVEAERRSHLEKYLRDFFS [I45E] | 0.107 ± 0.071
38 | ETWTVFRRYSRFREMHKTLKLKYAELAALEFPPKKLFGNKDERVNAERRSHLEKYLRDFFS [I45N] | 0.031 ± 0.054
39 | ETWTVFRRYSRFREMHKTLKLKYAELAALEFPPKKLFGNKDERVIAFRRSHLEKYLRDFFS [E47F] | 0.117 ± 0.11
40 | ETWTVFRRYSRFREMHKTLKLKYAELAALEFPPKKLFGNKDERVIAGRRSHLEKYLRDFFS [E47G] | 0.243 ± 0.051
41 | ETWTVFRRYSRFREMHKTLKLKYAELAALEFPPKKLFGNKDERVIAARRSHLEKYLRDFFS [E47A] | -0.307 ± 0.14
42 | ETWTVFRRYSRFREMHKTLKLKYAELAALEFPPKKLFGNKDERVIADRRSHLEKYLRDFFS [E47D] | 0.183 ± 0.079
43 | ETWTVFRRYSRFREMHKTLKLKYAELAALEFPPKKLFGNKDERVIACRRSHLEKYLRDFFS [E47C] | 0.038 ± 0.09
44 | ETWTVFRRYSRFREMHKTLKLKYAELAALEFPPKKLFGNKDERVIAHRRSHLEKYLRDFFS [E47H] | 0.129 ± 0.2
